From IntAct's records for PubMed 18202720

B1: Type-1 angiotensin II receptor A (Rattus norvegicus (Rat)), P25095 (parent)
chain: MALNSSAEDGIKRIQDDCPKAGRHSYIFVMIPTLYSIIFVVGIFGNSLVVIVIYFYMKLKTVASVFLLNLALADLCFLLTLPLWAVYTAMEYRWPFGNHLCKIASASVSFNLYASVFLLTCLSIDRYLAIVHPMKSRLRRTMLVAKVTCIIIWLMAGLASLPAVIHRNVYFIENTNITVCAFHYESRNSTLPIGLGLTKNILGFLFPFLIILTSYTLIWKALKKAYEIQKNKPRNDDIFRIIMAIVLFFFFSWVPHQIFTFLDVLIQLGVIHDCKISDIVDTAMPITICIAYFNNCLNPLFYGFLGKKFKKYFLQLLKYIPPKAKSHSSLSTKMSTLSYRPSDNMSSSAKKPASCFEVE

Variants of: B1
Conditions: with angt_human AGT
In the case of MALNSSAEDGIKRIQDDCPKAGRHSYIFVMIPTLYSIIFVVGIFGNSLVVIVIYFYMKLKTVASVFLLNLALADLCFLLTLPLWAVYTAMEYRWPFGNHLCKIASASVSFNLYASVFLLTCLSIDRYLAIVHPMKSRLRRTMLVAKVTCIIIWLMAGLASLPAVIHRNVYFIENTNITVCAFHYESRNSTLPIGLGLTKNILGFLFPFLIILTSYTLIWKALKKAYEIQKNKPRNDDIFRIIMAIVLFFFFSWVPHQIFTFLDVLIQLGVIHDCKISDIVDTAMPITICIAYFCNCLNPLFYGFLGKKFKKYFLQLLKYIPPKAKSHSSLSTKMSTLSYRPSDNMSSSAKKPASCFEVE [N294C], the “effect of a mutation on the interaction” value is reported as “increasing interaction”.
With MALNSSAEDGIKRIQDDCPKAGRHSYIFVMIPTLYSIIFVVGIFGNSLVVIVIYFYMKLKTVASVFLLNLALADLAFLLTLPLWAVYTAMEYRWPFGNHLCKIASASVSFNLYASVFLLTCLSIDRYLAIVHPMKSRLRRTMLVAKVTCIIIWLMAGLASLPAVIHRNVYFIENTNITVCAFHYESRNSTLPIGLGLTKNILGFLFPFLIILTSYTLIWKALKKAYEIQKNKPRNDDIFRIIMAIVLFFFFSWVPHQIFTFLDVLIQLGVIHDCKISDIVDTAMPITIAIAYFNNCLNPLFYGFLGKKFKKYFLQLLKYIPPKAKSHSSLSTKMSTLSYRPSDNMSSSAKKPASCFEVE [C76A;C289A] the “effect of a mutation on the interaction” value was “increasing interaction”.

Variants of: B1
Conditions: with angt_human AGT
Remark: another data set of the same source
In the case of MALNSSAEDGIKRIQDDCPKAGRHSYIFVMIPTLYSIIFVVGIFGNSLVVIVIYFYMKLKTVASVFLLNLALADLCFLLTLPLWAVYTAMEYRWPFGNHLCKIASASVSFNLYASVFLLTCLSIDRYLAIVHPMKSRLRRTMLVAKVTCIIIWLMAGLASLPAVIHRNVYFIENTNITVCAFHYESRNSTLPIGLGLTKNILGFLFPFLIILTSYTLIWKALKKAYEIQKNKPRNDDIFRIIMAIVLFFFFSWVPHQIFTFLDVLIQLGVIHDCKISDIVDTAMPITICIAAFNNCLNPLFYGFLGKKFKKYFLQLLKYIPPKAKSHSSLSTKMSTLSYRPSDNMSSSAKKPASCFEVE [Y292A], the “effect of a mutation on the interaction” value is reported as “decreasing interaction”.

Variants of: B1
Conditions: with angt_human AGT
Remark: another data set of the same source
For MALNSSAEDGIKRIQDDCPKAGRHSYIFVMIPTLYSIIFVVGIFGNSLVVIVIYFYMKLKTVASVFLLNLALADLAFLLTLPLWAVYTAMEYRWPFGNHLCKIASASVSFNLYASVFLLTCLSIDRYLAIVHPMKSRLRRTMLVAKVTCIIIWLMAGLASLPAVIHRNVYFIENTNITVCAFHYESRNSTLPIGLGLTKNILGFLFPFLIILTSYTLIWKALKKAYEIQKNKPRNDDIFRIIMAIVLFFFFSWVPHQIFTFLDVLIQLGVIHDCKISDIVDTAMPITIAIAYFNNALNPLFYGFLGKKFKKYFLQLLKYIPPKAKSHSSLSTKMSTLSYRPSDNMSSSAKKPASCFEVE [C76A;C289A;C296A], the “effect of a mutation on the interaction” value was “decreasing interaction”.

Variants of: B1
Conditions: with angt_human AGT
Remark: another data set of the same source
In the case of MALNSSAEDGIKRIQDDCPKAGRHSYIFVMIPTLYSIIFVVGIFGNSLVVIVIYFYMKLKTVASVFLLNLALADLAFLLTLPLWAVYTAMEYRWPFGNHLCKIASASVSFNLYASVFLLTCLSIDRYLAIVHPMKSRLRRTMLVAKVTCIIIWLMAGLASLPAVIHRNVYFIENTNITVCAFHYESRNSTLPIGLGLTKNILGFLFPFLIILTSYTLIWKALKKAYEIQKNKPRNDDIFRIIMAIVLFFFFSWVPHQIFTFLDVLIQLGVIHDCKISDIVDTAMPITICIAYFNNALNPLFYGFLGKKFKKYFLQLLKYIPPKAKSHSSLSTKMSTLSYRPSDNMSSSAKKPASCFEVE [C76A;C296A], the “effect of a mutation on the interaction” value is reported as “decreasing interaction”.

Variants of: B1
Conditions: with angt_human AGT
Remark: another data set of the same source
For MALNSSAEDGIKRIQDDCPKAGRHSYIFVMIPTLYSIIFVVGIFGNSLVVIVIYFYMKLKTVASVFLLNLALADLCFLLTLPLWAVYTAMEYRWPFGNHLCKIASASVSFNLYASVFLLTCLSIDRYLAIVHPMKSRLRRTMLVAKVTAIIIWLMAGLASLPAVIHRNVYFIENTNITVCAFHYESRNSTLPIGLGLTKNILGFLFPFLIILTSYTLIWKALKKAYEIQKNKPRNDDIFRIIMAIVLFFFFSWVPHQIFTFLDVLIQLGVIHDCKISDIVDTAMPITICIAYFNNCLNPLFYGFLGKKFKKYFLQLLKYIPPKAKSHSSLSTKMSTLSYRPSDNMSSSAKKPASCFEVE [C149A], the “effect of a mutation on the interaction” value was “decreasing interaction”.

Variants of: B1
Conditions: with angt_human AGT
Remark: another data set of the same source
In the case of MALNSSAEDGIKRIQDDCPKAGRHSYIFVMIPTLYSIIFVVGIFGNSLVVIVIYFYMKLKTVASVFLLNLALADLAFLLTLPLWAVYTAMEYRWPFGNHLCKIASASVSFNLYASVFLLTCLSIDRYLAIVHPMKSRLRRTMLVAKVTCIIIWLMAGLASLPAVIHRNVYFIENTNITVCAFHYESRNSTLPIGLGLTKNILGFLFPFLIILTSYTLIWKALKKAYEIQKNKPRNDDIFRIIMAIVLFFFFSWVPHQIFTFLDVLIQLGVIHDCKISDIVDTAMPITIAIAYFNNCLNPLFYGFLGKKFKKYFLQLLKYIPPKAKSHSSLSTKMSTLSYRPSDNMSSSAKKPASCFEVE [C76A;C289A], the “effect of a mutation on the interaction” value is reported as “decreasing interaction”.

Variants of: B1
Conditions: with angt_human AGT
Remark: another data set of the same source
With MALNSSAEDGIKRIQDDCPKAGRHSYIFVMIPTLYSIIFVVGIFGNSLVVIVIYFYMKLKTVASVFLLNLALADLAFLLTLPLWAVYTAMEYRWPFGNHLCKIASASVSFNLYASVFLLTCLSIDRYLAIVHPMKSRLRRTMLVAKVTCIIIWLMAGLASLPAVIHRNVYFIENTNITVCAFHYESRNSTLPIGLGLTKNILGFLFPFLIILTSYTLIWKALKKAYEIQKNKPRNDDIFRIIMAIVLFFFFSWVPHQIFTFLDVLIQLGVIHDCKISDIVDTAMPITIAIAYFNNCLNPLFYGFLGKKFKKYFLQLLKYIPPKAKSHSSLSTKMSTLSYRPSDNMSSSAKKPASCFEVE [C76A;C289A] the “effect of a mutation on the interaction” value was “decreasing interaction”.
In the case of MALNSSAEDGIKRIQDDCPKAGRHSYIFVMIPTLYSIIFVVGIFGNSLVVIVIYFYMKLKTVASVFLLNLALADLCFLLTLPLWAVYTAMEYRWPFGNHLCKIASASVSFNLYASVFLLTCLSIDRYLAIVHPMKSRLRRTMLVAKVTCIIIWLMAGLASLPAVIHRNVYFIENTNITVCAFHYESRNSTLPIGLGLTKNILGFLFPFLIILTSYTLIWKALKKAYEIQKNKPRNDDIFRIIMAIVLFFFFSWVPHQIFTFLDVLIQLGVIHDCKISDIVDTAMPITICIAYFNCCLNPLFYGFLGKKFKKYFLQLLKYIPPKAKSHSSLSTKMSTLSYRPSDNMSSSAKKPASCFEVE [N295C], the “effect of a mutation on the interaction” value is reported as “decreasing interaction”.

Variants of: B1
Conditions: with angt_human AGT
Remark: another data set of the same source
With MALNSSAEDGIKRIQDDCPKAGRHSYIFVMIPTLYSIIFVVGIFGNSLVVIVIYFYMKLKTVASVFLLNLALADLCFLLTLPLWAVYTAMEYRWPFGNHLCKIASASVSFNLYASVFLLTCLSIDRYLAIVHPMKSRLRRTMLVAKVTCIIIWLMAGLASLPAVIHRNVYFIENTNITVCAFHYESRNSTLPIGLGLTKNILGFLFPFLIILTSYTLIWKALKKAYEIQKNKPRNDDIFRIIMAIVLFFFFSWVPHQIFTFLDVLIQLGVIHDCKISDIVDTAMPIAICIAYFNNCLNPLFYGFLGKKFKKYFLQLLKYIPPKAKSHSSLSTKMSTLSYRPSDNMSSSAKKPASCFEVE [T287A] the “effect of a mutation on the interaction” value was “decreasing interaction”.

Variants of: B1
Conditions: with angt_human AGT
Remark: another data set of the same source
For MALNSSAEDGIKRIQDDCPKAGRHSYIFVMIPTLYSIIFVVGIFGNSLVVIVIYFYMKLKTVASVFLLNLALADLCFLLTLPLWAVYTAMEYRWPFGNHLCKIASASVSFNLYASVFLLTCLSIDRYLAIVHPMKSRLRRTMLVAKVTCIIIWLMAGLASLPAVIHRNVYFIENTNITVCAFHYESRNSTLPIGLGLTKNILGFLFPFLIILTSYTLIWKALKKAYEIQKNKPRNDDIFRIIMAIVLFFFFSWVPHAIFTFLDVLIQLGVIHDCKISDIVDTAMPITICIAYFNNCLNPLFYGFLGKKFKKYFLQLLKYIPPKAKSHSSLSTKMSTLSYRPSDNMSSSAKKPASCFEVE [Q257A], the “effect of a mutation on the interaction” value was “decreasing interaction”.
